Experiment [1] concerns the target T1, ErbB3 (Homo sapiens, UniProt P21860). In words: cell-based or functional assay.
Experiment [2] has as its target T1, ErbB3.
Experiment [3] addresses T1, ErbB3. In words: ErbB phosphorylation (Theranostics Health platform): ErbB3 activation (pErbB3). Also on record: endogenous in cells; host or cells: SCCHN cell lines (Cal27, FaDu, UNC7, SCC61 and others). The experiment is classed as cell-based. As to conditions: Cal27 cells, similar results in FaDu. As for the experimental part:
ErbB phosphorylation was measured using the Theranostics Health platform.

For experiment [4], the target named is T1, ErbB3. Briefly: ErbB3 phosphorylation ELISA, titration of purified NRG proteins on T47D cells. It is filed as cell-based. Also on record: endogenous in cells. Here is the method:
Genes encoding the full extracellular domains of each NRG gene and isoform (NRG1α, NRG1β, NRG2α, and NRG2β) were modified to encode a signal peptide at their 5′ end, in order to induce secretion, and a His-tag at their 3′ end. Constructs were transfected into HEK293 cells and conditioned media was treated with NaCl to a final concentration of 0.5 M. NRG-containing media was purified by NiNTA chromatography and eluted with stepwise increases in imidazole in a phosphate buffer containing 0.5 M NaCl. NRG-containing fractions were pooled and further purified by size-exclusion chromatography with a mobile phase consisting of a phosphate-based buffer with 0.5 M NaCl. Purified NRG proteins were titrated on T47D breast cancer cells (which naturally express all ErbB receptors) for 10 minutes at 37° C. ErbB3 phosphorylation was measured by ELISA.
On the technique in general: An ELISA detects its analyte on a solid surface through an enzyme-linked reagent.

The target in experiment [5] is T1, ErbB3. Briefly: cell-based or functional assay. The source holds these as a separate data set.

As for “NRG1β full extracellular domain, His-tagged (from UniProt Q02297 20-242) (ligand)”, the potency of ErbB3 phosphorylation relative to the other NRG isoforms, T47D cells in experiment [1] is 10 fold. In experiment [2], this molecule registered an EC50 (read off the curve), ErbB3 phosphorylation in T47D cells (ELISA) [panel B] of 1 nM.
Consider “pertuzumab: anti-ErbB2 monoclonal antibody [reference compound]”, for which the “inhibiting or blocking EGF-stimulated activation of ErbB3” value in experiment [3] (presence of EGF) is reported as “neither pertuzumab nor 2C2-YTE were capable of inhibiting or blocking”. Also, the “activation of ErbB3” value in experiment [3] (presence of NRG) is on record as “blocked activation”.

B1: NRG1β: purified His-tagged full extracellular domain of neuregulin isoform, recombinantly expressed by HEK293 cells (protein, UniProt Q02297 20-242, looked up)
extracellular domain: SGKKPESAAGSQSPALPPRLKEMKSQESAAGSKLVLRCETSSEYSSLRFKWFKNGNELNRKNKPQNIKIQKKPGKSELRINKASLADSGEYMCKVISKLGNDSASANITIVESNEIITGMPASTEGAYVSSESPIRISVSTEGANTSSSTSTSTTGTSHLVKCAEKEKTFCVNGGECFMVKDLSNPSRYLCKCQPGFTGARCTENVPMKVQNQEKAEELYQKR
modifications: extracellular domain His tag
notes: purified His-tagged full extracellular domain of neuregulin isoform, recombinantly expressed by HEK293 cells
For the molecule B1, the “potency of ErbB3 activation relative to the other NRG isoforms” value in experiment [4] is recorded as “approximately 10 fold”.

B2: NRG2β full extracellular domain, His-tagged (ligand, UniProt O14511 112-405, looked up, not shown: small tags and cut ends)
chain: CYSPSLKSVQDQAYKAPVVVEGKVQGLVPAGGSSSNSTREPPASGRVALVKVLDKWPLRSGGLQREQVISVGSCVPLERNQRYIFFLEPTEQPLVFKTAFAPLDTNGKNLKKEVGKILCTDCATRPKLKKMKSQTGQVGEKQSLKCEAAAGNPQPSYRWFKDGKELNRSRDIRIKYGNGRKNSRLQFNKVKVEDAGEYVCEAENILGKDTVRGRLYVNSVSTTLSSWSGHARKCNETAKSYCVNGGVCYYIEGINQLSCKCPNGFFGQRCLEKLPLRLYMPDPKQKAEELYQKR
As to B2, the EC50 (read off the curve), ErbB3 phosphorylation in T47D cells (ELISA) [panel B] in experiment [2] worked out at 7 nM.

B3: 2C2-YTE anti-HER3 antibody (antibody, human IgG1, V domains shown)
VH: EVQLLESGGGLVQPGGSLRLSCAASGFTFSYYYMQWVRQAPGKGLEWVSYIGSSGGVTNYADSVKGRFTISRDNSKNTLYLQMNSLRAEDTAVYYCARVGLGDAFDIWGQGTMVTVSS
VL: QSVLTQPPSASGTPGQRVTISCSGSLSNIGLNYVSWYQQLPGTAPKLLISRNNQRPSGVPDRFSGSKSGTSASLAISGLRSEDEADYYCAAWDDSPPGEAFGGGTKLTVL
B3: in experiment [5], the pY-H3 (VeraTag phosphorylated ErbB3), 4213 non-cancerous skin cell line, 2C2-YTE treatment turned out to be 0.6; the pY-H3 (VeraTag phosphorylated ErbB3), 4213 non-cancerous skin cell line, control IgG1 treatment (baseline for 2C2-YTE) was 0.5; the pY-H3 (VeraTag phosphorylated ErbB3), CAL27 cells, 2C2-YTE treatment stood at 0.6; the pY-H3 (VeraTag phosphorylated ErbB3), CAL27 cells, control IgG1 treatment (baseline for 2C2-YTE) was 4.6. In experiment [5], the pY-H3 (VeraTag phosphorylated ErbB3), SCC35 cells, 2C2-YTE treatment came to 0.4; the pY-H3 (VeraTag phosphorylated ErbB3), SCC35 cells, control IgG1 treatment (baseline for 2C2-YTE) came out at 1.1; the pY-H3 (VeraTag phosphorylated ErbB3), SCC61 cells, 2C2-YTE treatment was 0.6; the pY-H3 (VeraTag phosphorylated ErbB3), SCC61 cells, control IgG1 treatment (baseline for 2C2-YTE) amounted to 6.1. In experiment [5], the pY-H3 (VeraTag phosphorylated ErbB3), UNC7 cells, 2C2-YTE treatment worked out at 0.4; the pY-H3 (VeraTag phosphorylated ErbB3), UNC7 cells, control IgG1 treatment (baseline for 2C2-YTE) worked out at 3.5; the pY-H3 (VeraTag phosphorylated ErbB3), UNC10 cells, control IgG1/2C2-YTE (one value given) amounted to 0; the pY-H3 pharmacodynamic (PD) ratio, 4213 non-cancerous skin cell line came out at 1. In experiment [5], the pY-H3 pharmacodynamic (PD) ratio, CAL27 cells was found to be 7.5; the pY-H3 pharmacodynamic (PD) ratio, SCC35 cells stood at 2.8; the pY-H3 pharmacodynamic (PD) ratio, SCC61 cells worked out at 10.6; the pY-H3 pharmacodynamic (PD) ratio, UNC7 cells came to 8.4. For the same molecule, in experiment [5], the pY-H3 pharmacodynamic (PD) ratio, UNC10 cells is 0.

The values are drawn from patent US20180171027A1 (Celldex Therapeutics, Inc., priority 2015, published 2018).
